Laboratory results as given in patent publication US20080008713A1.

Molecular target: mouse TNFR1 on L929 cells (mouse) (UniProt P25118)
Assay: cell-based or functional assay

mouse TNFR1 on L929 cells (mouse), sequence (P25118 30-454): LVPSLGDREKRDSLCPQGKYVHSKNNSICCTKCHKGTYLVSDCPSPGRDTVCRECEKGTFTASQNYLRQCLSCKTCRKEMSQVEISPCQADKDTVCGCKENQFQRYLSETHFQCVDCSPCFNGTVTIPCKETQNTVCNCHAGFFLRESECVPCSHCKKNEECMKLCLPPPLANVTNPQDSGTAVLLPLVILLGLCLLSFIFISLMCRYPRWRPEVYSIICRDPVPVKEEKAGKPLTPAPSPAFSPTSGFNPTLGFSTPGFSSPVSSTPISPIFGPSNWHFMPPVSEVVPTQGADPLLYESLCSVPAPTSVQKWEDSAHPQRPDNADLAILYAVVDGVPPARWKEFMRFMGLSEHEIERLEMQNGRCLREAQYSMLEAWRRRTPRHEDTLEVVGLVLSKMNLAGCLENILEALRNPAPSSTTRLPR

Row | Substance | ND50 of induced cytotoxicity, modified L929 assay without TNF-α [pM] | ND50 of cell killing, modified L929 assay without TNF-α [nM]
1 | anti-TNFR1 antibody AF-425-PB (R&D Systems) | 100 | 
2 | anti-TNFR1 antibody MAB430 (R&D Systems) |  | 10
